Test results: patent US20050175719A1, “Procyanidins for treatment and prevention of enzymatic irritation to the skin” (priority 2004, published 2005)

B1: Lactoferrin: commonly used antioxidant (protein, UniProt P02788 20-710, looked up)
Lactotransferrin: GRRRSVQWCAVSQPEATKCFQWQRNMRKVRGPPVSCIKRDSPIQCIQAIAENRADAVTLDGGFIYEAGLAPYKLRPVAAEVYGTERQPRTHYYAVAVVKKGGSFQLNELQGLKSCHTGLRRTAGWNVPIGTLRPFLNWTGPPEPIEAAVARFFSASCVPGADKGQFPNLCRLCAGTGENKCAFSSQEPYFSYSGAFKCLRDGAGDVAFIRESTVFEDLSDEAERDEYELLCPDNTRKPVDKFKDCHLARVPSHAVVARSVNGKEDAIWNLLRQAQEKFGKDKSPKFQLFGSPSGQKDLLFKDSAIGFSRVPPRIDSGLYLGSGYFTAIQNLRKSEEEVAARRARVVWCAVGEQELRKCNQWSGLSEGSVTCSSASTTEDCIALVLKGEADAMSLDGGYVYTAGKCGLVPVLAENYKSQQSSDPDPNCVDRPVEGYLAVAVVRRSDTSLTWNSVKGKKSCHTAVDRTAGWNIPMGLLFNQTGSCKFDEYFSQSCAPGSDPRSNLCALCIGDEQGENKCVPNSNERYYGYTGAFRCLAENAGDVAFVKDVTVLQNTDGNNNEAWAKDLKLADFALLCLDGKRKPVTEARSCHLAMAPNHAVVSRMDKVERLKQVLLHQQAKFGRNGSDCPDKFCLFQSETKNLLFNDNTECLARLHGKTTYEKYLGPQYVAGITNLKKCSTSPLLEACEFLRK
B2: STI: pure serine protease inhibitor (soybean trypsin inhibitor) from Sigma, used as positive control (protein, UniProt P01070 25-205, looked up)
Trypsin inhibitor A: DFVLDNEGNPLENGGTYYILSDITAFGGIRAAPTGNERCPLTVVQSRNELDKGIGTIISSPYRIRFIAEGHPLSLKFDSFAVIMLCVGIPTEWSVVEDLPEGPAVKIGENKDAMDGWFRLERVSDDEFNNYKLVFCPQQAEDDKCGDIGISIDHDDGTRRLVVSKNKPLVVQFQKLDKESL

Test system: trypsin
Assay: Inhibition of trypsin-induced cleavage of fluorescent BODIPY FL casein (EnzChek protease assay kit)
Format: biochemical
From the text: The procedure of Example 1 was independently repeated using the procyanidin-containing grape seed extract and STI, respectively, at 0.1% concentration. In addition, the procedure of Example 1 was repeated on the five individual monomer units typically found in OPC, at up to three different concentration levels.

Molecule | trypsin inhibition activity (in words) (at concentrations up to 0.1%) | % trypsin inhibition (concentration 0.001 % (w/w)) | % trypsin inhibition (concentration 0.01 % (w/w)) | % trypsin inhibition (concentration 0.1 % (w/w)) | % trypsin inhibition (Table 4, concentration (w/w) 0.1 %) | % trypsin inhibition (concentration 0.0005 % (w/w)) | % trypsin inhibition (concentration 0.0025 % (w/w)) | % trypsin inhibition (concentration 0.005 % (w/w)) | % trypsin inhibition (concentration 0.025 % (w/w)) | % trypsin inhibition (concentration 0.05 % (w/w)) | % trypsin inhibition (concentration 0.075 % (w/w))
B1 | no trypsin inhibition activity | −2% | −4% | 0% |  |  |  |  |  |  | 
B2 |  | 30% | 74% |  | 89% | 17% | 44% | 55% | 85% | 87% | 63%
